Measurements reported in patent US20110318349A1 (AbbVie / Abbott, published 2011).
Numbering of substitutions follows the chain as printed.

Columns and labels:
muTNFα = biological target: T1, muTNFα (mouse, UniProt P06804 80-235); test: cell-based or functional assay
T1 sequence (looked up): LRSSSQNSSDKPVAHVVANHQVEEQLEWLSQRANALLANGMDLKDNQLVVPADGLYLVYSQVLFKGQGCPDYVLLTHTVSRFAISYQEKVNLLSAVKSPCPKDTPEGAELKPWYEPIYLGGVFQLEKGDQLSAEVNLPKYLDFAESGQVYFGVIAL

[1] = biological target: T2, Recombinant Human TNF-α/TNFSF1A (human, UniProt P01375 77-233); test: SPR (Biacore), antibody captured on goat anti-human IgG Fc chip, antigen in solution
Description: (§1) Binding of antibodies or DVD-Ig to a target antigen (for example, a purified recombinant target antigen) was determined by surface plasmon resonance-based measurements with a Biacore® T-100, T-200, or 3000 instrument (GE, New Jersey) using running HBS-EP (10 mM HEPES [pH 7.4], 150 mM NaCl, 3 mM EDTA, and 0.005% surfactant P20) at 25° C. All chemicals were obtained from GE (New Jersey) or otherwise from a different source as described in the text. For example, approximately 5000 RU of goat anti-human IgG, (Fcγ), fragment specific polyclonal antibody (Pierce Biotechnology Inc, Rockford, Ill.) diluted in 10 mM sodium acetate (pH 4.5) was directly immobilized across a CM5 research grade biosensor chip using a standard amine coupling kit according to manufacturer's instructions and procedures at 25 Unreacted moieties on the biosensor surface were blocked with ethanolamine Modified carboxymethyl dextran surface in flowcell 2,3, and 4 was used as a reaction surface. Modified carboxymethyl dextran surface with goat anti-human IgG in flow cell 1 was used as the reference surface. For kinetic analysis, rate equations derived from the 1:1 Langmuir binding model were fitted simultaneously to association and dissociation phases of all eight injections (using global fit analysis) with the use of Biaevaluation 4.0.1 software. Purified antibodies or DVD-Ig were diluted in HEPES-buffered saline for capture across goat anti-human IgG specific reaction surfaces. […] The association and dissociation rate constants, kₒₙ (M⁻¹s⁻¹) and koff (s⁻¹) were determined under a continuous flow rate of 500 min. […] Anti-TWEAK antibodies and DVD-Igs were evaluated by binding of the antibodies/DVD-Igs to the captured FLAG tagged TWEAK on a mouse anti FLAG biosensor chip. […]
(§2) The equilibrium dissociation constant (M) of the reaction between antibodies or DVD-Igs and the target antigen was then calculated from the kinetic rate constants by the following formula: KD=koff/kₒₙ. Binding was recorded as a function of time and kinetic rate constants are calculated.

[2] = biological target: T2, Recombinant Human TNF-α/TNFSF1A; test: SPR (Biacore), antibody captured on goat anti-human IgG Fc chip, antigen in solution (row printed a second time)
Description: Binding of antibodies or DVD-Ig to a target antigen (for example, a purified recombinant target antigen) was determined by surface plasmon resonance-based measurements with a Biacore® T-100, T-200, or 3000 instrument (GE, New Jersey) using running HBS-EP (10 mM HEPES [pH 7.4], 150 mM NaCl, 3 mM EDTA, and 0.005% surfactant P20) at 25° C. All chemicals were obtained from GE (New Jersey) or otherwise from a different source as described in the text. […] The association and dissociation rate constants, kₒₙ (M⁻¹s⁻¹) and koff (s⁻¹) were determined under a continuous flow rate of 500 min. […] Anti-TWEAK antibodies and DVD-Igs were evaluated by binding of the antibodies/DVD-Igs to the captured FLAG tagged TWEAK on a mouse anti FLAG biosensor chip. […]
as §2

huTWEAK = biological target: T3, huTWEAK (human, UniProt O43508 93-249, limits assumed); test: cell-based or functional assay
T3 sequence (looked up): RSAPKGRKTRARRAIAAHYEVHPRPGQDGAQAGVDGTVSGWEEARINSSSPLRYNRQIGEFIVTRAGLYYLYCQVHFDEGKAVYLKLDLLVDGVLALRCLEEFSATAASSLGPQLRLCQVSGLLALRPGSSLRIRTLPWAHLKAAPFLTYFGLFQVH

[3] = biological target: T2, Recombinant Human TNF-α/TNFSF1A; test: SPR (Biacore), DVD-Ig captured on goat anti-human IgG Fc chip, antigen in solution; N-terminal TNF domain
Description: (§3) Binding of antibodies or DVD-Ig to a target antigen (for example, a purified recombinant target antigen) was determined by surface plasmon resonance-based measurements with a Biacore® T-100, T-200, or 3000 instrument (GE, New Jersey) using running HBS-EP (10 mM HEPES [pH 7.4], 150 mM NaCl, 3 mM EDTA, and 0.005% surfactant P20) at 25° C. All chemicals were obtained from GE (New Jersey) or otherwise from a different source as described in the text. For example, approximately 5000 RU of goat anti-human IgG, (Fcγ), fragment specific polyclonal antibody (Pierce Biotechnology Inc, Rockford, Ill.) diluted in 10 mM sodium acetate (pH 4.5) was directly immobilized across a CM5 research grade biosensor chip using a standard amine coupling kit according to manufacturer's instructions and procedures at 25 Unreacted moieties on the biosensor surface were blocked with ethanolamine Modified carboxymethyl dextran surface in flowcell 2,3, and 4 was used as a reaction surface. Modified carboxymethyl dextran surface with goat anti-human IgG in flow cell 1 was used as the reference surface. For kinetic analysis, rate equations derived from the 1:1 Langmuir binding model were fitted simultaneously to association and dissociation phases of all eight injections (using global fit analysis) with the use of Biaevaluation 4.0.1 software. Purified antibodies or DVD-Ig were diluted in HEPES-buffered saline for capture across goat anti-human IgG specific reaction surfaces. Antibodies or DVD-Ig to be captured as a ligand (1 μg/ml) were injected over reaction matrices at a flow rate of 50 μl/min. The association and dissociation rate constants, kₒₙ (M⁻¹s⁻¹) and koff (s⁻¹) were determined under a continuous flow rate of 500 min. Rate constants were derived by making kinetic binding measurements at different antigen concentrations ranging from 2-200 nM. Anti-TWEAK antibodies and DVD-Igs were evaluated by binding of the antibodies/DVD-Igs to the captured FLAG tagged TWEAK on a mouse anti FLAG biosensor chip. The concentrations of the DVD-Igs/Antibodies tested were between 100-0.01 nM.
as §2

[4] = biological target: T4, FLAG tagged TWEAK (Recombinant Human TWEAK) (human, UniProt O43508 106-249, limits assumed); test: SPR (Biacore), FLAG tagged TWEAK captured on mouse anti-FLAG chip, DVD-Ig in solution; C-terminal TWEAK (seq. 2) domain
T4 construct: Captured on a mouse anti-FLAG biosensor chip in the Biacore assay of the anti-TWEAK antibodies and DVD-Igs; also called TWEAK/TNSF12; not shown: FLAG tag
T4 sequence (looked up): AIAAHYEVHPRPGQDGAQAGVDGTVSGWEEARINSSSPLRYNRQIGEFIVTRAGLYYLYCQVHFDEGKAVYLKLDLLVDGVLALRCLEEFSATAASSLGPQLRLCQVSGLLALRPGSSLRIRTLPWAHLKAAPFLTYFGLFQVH
Description: as §1, §2

[5] = biological target: T4, FLAG tagged TWEAK (Recombinant Human …); test: SPR (Biacore), FLAG tagged TWEAK captured on mouse anti-FLAG chip, antibody in solution
Description: as §3, §2

T2 sequence (P01375 77-233 limits assumed): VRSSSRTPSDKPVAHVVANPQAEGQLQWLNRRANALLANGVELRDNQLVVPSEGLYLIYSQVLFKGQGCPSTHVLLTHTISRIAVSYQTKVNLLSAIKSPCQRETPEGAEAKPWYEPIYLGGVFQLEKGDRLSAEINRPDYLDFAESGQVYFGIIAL

B1: AB210 (antibody, human IgG1, kappa, V domains shown)
VH: EFQLQQSGPELVKPGASVRISCKASGYSFTDYNMNWVKQSNGKSLEWVGVINPNYGSSTYNQKFKGKATLTVDQSSSTAYMQLNSLTSEDSAVYYCARKWGQLGRGFFDVWGTGTTVTVSS
VL: QIVLSQSPAILSASPGEKVTMTCRASSSVSYMHWFQQKPGSSPKPWIYATSNLASGVPARFSGSGSGTSYSLTISRVEAEDAATYYCQQWSSSPLTFGAGTKLELKR
notes: also called TNF parent antibody; muTNFα Parent Antibody
With B1 the “TNFα Neutralization Assay EC50 nM (L929 cell viability, WST-1)” value (muTNFα) was 0.717 nM, the Kd [1] was 73 pM and the koff [1] was 0.00041 s⁻¹. It also gave a kon [1] of 5.6e+06 M⁻¹ s⁻¹, a Kd [2] of 73 pM and a koff [2] of 0.00041 s⁻¹.

B2: DVD1132 (bispecific antibody, human IgG1, kappa)
heavy: not shown
light: QIVLSQSPAILSASPGEKVTMTCRASSSVSYMHWFQQKPGSSPKPWIYATSNLASGVPARFSGSGSGTSYSLTISRVEAEDAATYYCQQWSSSPLTFGAGTKLELKRTVAAPDVVMTQSPLSLPVTPGEPASISCRSSQSLVSSKGNTYLHWYLQKPGQSPQFLIYKVSNRFSGVPDRFSGSGSGTDFTLKISRVEAEDVGVYFCSQSTHFPRTFGGGTKVEIKRTVAAPSVFIFPPSDEQLKSGTASVVCLLNNFYPREAKVQWKVDNALQSGNSQESVTEQDSKDSTYSLSSTLTLSKADYEKHKVYACEVTHQGLSSPVTKSFNRGEC
With B2 the “N-terminal VD TNFα Neutralization Assay EC50 nM (L929 cell viability, WST-1)” value (muTNFα) was 0.196 nM and the “C-terminal VD TWEAK Neutralization Assay EC50 nM (IL-8 in supernatant of A375 cells)” value (huTWEAK) was 0.238 nM.

B3: DVD1135 (bispecific antibody, human IgG1, kappa)
heavy: not shown
light: B2 light with P124S, T126S, P127L, E129D, P130Q, Q162K, E196A, V200L, K220T, V221L
For B3, the “N-terminal VD TNFα Neutralization Assay EC50 nM (L929 cell viability, WST-1)” value (muTNFα) was 1.95 nM and the “C-terminal VD TWEAK Neutralization Assay EC50 nM (IL-8 in supernatant of A375 cells)” value (huTWEAK) was 4.34 nM.

B4: DVD1140 (bispecific antibody, human IgG1, kappa)
heavy: not shown
light: B2 light with P124S, T126S, P127L, E129D, P130Q, Q162K, E196A, V200L, K220T, V221L
notes: also called DVD1140H/DVD1140L
For B4, the “N-terminal VD TNFα Neutralization Assay EC50 nM (L929 cell viability, WST-1)” value (muTNFα) was 1.06 nM, the “C-terminal VD TWEAK Neutralization Assay EC50 nM (IL-8 in supernatant of A375 cells)” value (huTWEAK) was 0.136 nM and the Kd [3] was 62 pM. The koff [3] was 0.00082 s⁻¹, the kon [3] was 1.3e+07 M⁻¹ s⁻¹ and the Kd [4] was less than 8.3 pM. It also gave a koff [4] of less than 1e-06 s⁻¹ and a kon [4] of 120000 M⁻¹ s⁻¹.

B5: DVD1127 (bispecific antibody, human IgG1, kappa)
heavy: not shown
light: B2 light
notes: also called DVD1127H/DVD1127L
B5 was tested, and the “N-terminal VD TNFα Neutralization Assay EC50 nM (L929 cell viability, WST-1)” value (muTNFα) was 0.703 nM, the Kd [3] was 59 pM and the koff [3] was 0.00058 s⁻¹. For the same binder, the kon [3] was 9.9e+06 M⁻¹ s⁻¹.

B6: AB211 (antibody, human IgG1, kappa, V domains shown)
VH: EVQLVESGGGLVQPGGSLRLSCAASGFTFSRYAMSWVRQAPGKGLEWVAEISSGGSYPYYPDTVTGRFTISRDNAKNSLYLQMNSLRAEDTAVYYCARVLYYDYDGDRIEVMDYWGQGTLVTVSS
VL: DVVMTQSPLSLPVTPGEPASISCRSSQSLVSSKGNTYLHWYLQKPGQSPQFLIYKVSNRFSGVPDRFSGSGSGTDFTLKISRVEAEDVGVYFCSQSTHFPRTFGGGTKVEIKR
For B6, the “TWEAK Neutralization Assay EC50 nM (IL-8 in supernatant of A375 cells)” value (huTWEAK) was 0.396 nM, the Kd [5] was less than 0.25 pM and the koff [5] was 2.5e-06 s⁻¹. It also gave a kon [5] greater than 1e+07 M⁻¹ s⁻¹.

B7: DVD1128 (bispecific antibody, human IgG1, kappa)
heavy: not shown
light: DVVMTQSPLSLPVTPGEPASISCRSSQSLVSSKGNTYLHWYLQKPGQSPQFLIYKVSNRFSGVPDRFSGSGSGTDFTLKISRVEAEDVGVYFCSQSTHFPRTFGGGTKVEIKRTVAAPQIVLSQSPAILSASPGEKVTMTCRASSSVSYMHWFQQKPGSSPKPWIYATSNLASGVPARFSGSGSGTSYSLTISRVEAEDAATYYCQQWSSSPLTFGAGTKLELKRTVAAPSVFIFPPSDEQLKSGTASVVCLLNNFYPREAKVQWKVDNALQSGNSQESVTEQDSKDSTYSLSSTLTLSKADYEKHKVYACEVTHQGLSSPVTKSFNRGEC
B7 was tested, and the “N-terminal VD TWEAK Neutralization Assay EC50 nM (IL-8 in supernatant of A375 cells)” value (huTWEAK) was 0.462 nM.

B8: DVD1131 (bispecific antibody, human IgG1, kappa)
heavy: not shown
light: QIVLSQSPAILSASPGEKVTMTCRASSSVSYMHWFQQKPGSSPKPWIYATSNLASGVPARFSGSGSGTSYSLTISRVEAEDAATYYCQQWSSSPLTFGAGTKLELKRTVAAPSVFIFPPDVVMTQSPLSLPVTPGEPASISCRSSQSLVSSKGNTYLHWYLQKPGQSPQFLIYKVSNRFSGVPDRFSGSGSGTDFTLKISRVEAEDVGVYFCSQSTHFPRTFGGGTKVEIKRTVAAPSVFIFPPSDEQLKSGTASVVCLLNNFYPREAKVQWKVDNALQSGNSQESVTEQDSKDSTYSLSSTLTLSKADYEKHKVYACEVTHQGLSSPVTKSFNRGEC
B8 was tested, and the “C-terminal VD TWEAK Neutralization Assay EC50 nM (IL-8 in supernatant of A375 cells)” value (huTWEAK) was 0.123 nM.

B9: AB212 (antibody, human IgG1, kappa, V domains shown)
VH: EVQLVESGGGLVRPGGSLKLFCAASGFTFSRYAMSWVRQSPEKRLEWVAEISSGGSYPYYPDTVTGRFTISRDNAKNTLYLEMSSLKSEDTAMYYCARVLYYDYDGDRIEVMDYWGQGTAVIVSS
VL: B6 VL with P12S, T14S, P15L, E17D, P18Q, Q50K, E84A, V88L, K108T, V109L
With B9 the Kd [5] was 1.8 pM, the koff [5] was 2.6e-05 s⁻¹ and the kon [5] was 1.1e+07 M⁻¹ s⁻¹.
